The values that follow come from patent US11390894B2, “Biological processes for the production of aryl sulfates” (CysBio ApS, priority 2014, dated 2022).

Common to all, as to assay type: cell-based, Escherichia coli
Data set [1] deals with pHCA. Description: Production of zosteric acid in E. coli from pHCA through heterologous expression of sulfotransferases. Particulars: culture media; M9 glucose, 0.1 mM IPTG, 0.1 mM pHCA, four days of growth. An excerpt:
A range of aryl sulfotransferases including SULT1A1 Rattus norvegicus (SEQ ID NO: 1), SULT1A1 Homo sapiens (SEQ ID NO: 2), SULT1A1 Equus caballus (SEQ ID NO: 3), SULT1A1 Sus scrofa domesticus (SEQ ID NO: 4), SULT1A1 Canis lupus familiaris (SEQ ID NO: 5) and SULT1E1 Gallus gallus domesticus (SEQ ID NO: 6) were expressed in Escherichia coli. […]. The nucleotide sequence of the gene encoding SEQ ID NO: 2 was codon optimized for expression in Escherichia coli (GeneArt, Life Technologies) and amplified by PCR using the primers in Table 1. The pETDuet-1 plasmid was digested with restriction endonucleases Ncol and Sal. The PCR products were then individually cloned into the plasmid pETDuet-1 using the Gibson reaction (New England Biolabs). The resulting plasmids were transformed into BL21(DE3)pLysS (Life Technologies).
(§1) The strains were grown in M9 minimal media containing glucose as a carbon source, and 0.1 mM IPTG for induction of gene expression as well as 0.1 mM p-coumaric acid (pHCA). After four days of growth, samples were withdrawn by filtration and analyzed by HPLC.
(§2) The concentration of p-courmaric acid (pHCA) and zosteric acid in the supernatant was quantified by high performance (HPLC) and compared to chemical standards. HPLC was done on a Thermo setup using a HS-F5 column and mobile phases: 5 mM ammonium formate pH 4.0 (A) and acetonitrile (B) at 1.5 mL min-1, using a gradient elution starting at 5% B. From 0.5 min after injection to 7 min, the fraction of B increased linearly from 5% to 60%, and between 9.5 min and 9.6 the fraction of B decreased back to 5%, and remaining there until 12 min. pHCA and zosteric acid were quantified by measuring absorbance at 277 nm.
Zosteric acid was formed with an aryl sulfotransferase heterologously expressed in a microorganism exemplified by E. coli supplied with the substrate.

Data set [2] relates to pHCA. In words: Zosteric acid production in E. coli expressing an aryl sulfotransferase in combination with cysDNC and cysQ. Particulars: grown as in Example 1 (0.1 mM pHCA). The protocol: as §1, §2
The plasmid pRSFDuet-1 (Life Technologies) was digested by the restriction endonucleases NdeI and BgIII. The gene cluster was inserted into the digested plasmid using the Gibson reaction (New England Biolabs). […] For the combined expression of cysDNC and cysQ in an artificial operon, cysDNCQ, the two parts were amplified by PCR from E. coli MG1655 chromosomal DNA using the primers shown in Table 3. Again the parts were inserted into the digested plasmid. […] The plasmid expressing SULT1A1 Homo sapiens (SEQ ID NO: 2) from example 1 was co-transformed into E. coli BL21(DE3)pLysS cells (Life Technologies) with either the plasmid expressing cysDNC or cysDNCQ.
Cells were grown as in Example 1 and the supernatants were analyzed for product formation as in example 1. The strain expressing SULT1A1 in combination with cysDNCQ was also grown without the addition of IPTIG for induction.

The test system of another data set is kaempferol. Description: Percent conversion of substrate by E. coli cells expressing sulfotransferases. Particulars: 87 μM kaempferol, M9 medium, overnight 37° C. The protocol:
as §2
(§3) Different sulfotransferases were examined for their substrate specificities against three substrates. We tested the sulfotransferases mentioned in example 1, as well as additional ones. The genes encoding these were cloned as described in example 1 using the primers shown in the table below from cDNA libraries of the respective organisms, except for the SULT1A1 from rat (Rattus norvegicus) codon-optimized for E. coli (described above). The resulting vectors were transformed into BL21(DE3)pLysS.
(§4) The resulting strains were grown in M9 medium containing either 100 μM pHCA, 95 μM resveratrol or 87 M kaempferol. The cultures were grown overnight at 37° C., 300 rpm. The following day the supernatants were isolated and examined by HPLC as described in example 1.

Data set [3] relates to pHCA. Described as above. Particulars: 100 μM pHCA, M9 medium, overnight 37° C. The protocol: as §2, §3, §4
For a further data set, the system named is resveratrol. The description is as above. Particulars: 95 μM resveratrol, M9 medium, overnight 37° C. The protocol:
as §2, §3, §4

B1: SULT1A1 Homo sapiens: aryl sulfotransferase SULT1A1 Homo sapiens (SEQ ID NO: 2) (protein, listed as Homo sapiens)
chain: MELIQDTSRPPLEYVKGVPLIKYFAEALGPLQSFQARPDDLLISTYPKSGTTWVSQILDMIYQGGDLEKCHRAPIFMRVPFLEFKAPGIPSGMETLKDTPAPRLLKTHLPLALLPQTLLDQKVKVVYVARNAKDVAVSYYHFYHMAKVHPEPGTWDSFLEKFMVGEVSYGSWYQHVQEWWELSRTHPVLYLFYEDMKENPKREIQKILEFVGRSLPEETVDFMVQHTSFKEMKKNPMTNYTTVPQEFMDHSISPFMRKGMAGDWKTTFTVAQNERFDADYAEKMAGCSLSFRSEL
In the case of B1, in the data set with pHCA [1], the Zosteric acid formed is recorded as 0.02 mM and the pHCA remaining is recorded as 0.08 mM. Further, in the data set on pHCA [2] (induction 0.1 mM IPTG), the Zosteric acid formed was determined as 0.02 mM and the pHCA remaining is reported as 0.08 mM. For the same molecule, the “percent conversion of kaempferol” value with kaempferol came out at 97%. For the same molecule, in the data set on pHCA [3], the “percent conversion of pHCA” value turned out to be 39%. Further, in the data set with resveratrol, the “percent conversion of resveratrol” value worked out at 36%.

B2: SULT1A1 Homo sapiens, CysDNCQ: SULT1A1 Homo sapiens co-expressed with E. coli artificial operon cysDNCQ (plus PAP phosphatase cysQ) (protein, UniProt P50225 1-295, looked up)
Sulfotransferase 1A1: MELIQDTSRPPLEYVKGVPLIKYFAEALGPLQSFQARPDDLLISTYPKSGTTWVSQILDMIYQGGDLEKCHRAPIFMRVPFLEFKAPGIPSGMETLKDTPAPRLLKTHLPLALLPQTLLDQKVKVVYVARNAKDVAVSYYHFYHMAKVHPEPGTWDSFLEKFMVGEVSYGSWYQHVQEWWELSRTHPVLYLFYEDMKENPKREIQKILEFVGRSLPEETVDFVVQHTSFKEMKKNPMTNYTTVPQEFMDHSISPFMRKGMAGDWKTTFTVAQNERFDADYAEKMAGCSLSFRSEL
modifications: co-expressed with E. coli cysDNCQ
Consider B2, for which the Zosteric acid formed in the data set with pHCA [2] (induction 0.1 mM IPTG) is 0.09 mM. In addition, the pHCA remaining is on record as 0.04 mM with pHCA [2] (induction 0.1 mM IPTG) and 0.10 mM in the data set with pHCA [2] (induction None).

B3: SULT1A1 Homo sapiens, CysDNC: SULT1A1 Homo sapiens co-expressed with E. coli cysDNC (ATP sulfurylase and APS kinase) (protein, UniProt P50225 1-295, looked up)
Sulfotransferase 1A1: MELIQDTSRPPLEYVKGVPLIKYFAEALGPLQSFQARPDDLLISTYPKSGTTWVSQILDMIYQGGDLEKCHRAPIFMRVPFLEFKAPGIPSGMETLKDTPAPRLLKTHLPLALLPQTLLDQKVKVVYVARNAKDVAVSYYHFYHMAKVHPEPGTWDSFLEKFMVGEVSYGSWYQHVQEWWELSRTHPVLYLFYEDMKENPKREIQKILEFVGRSLPEETVDFVVQHTSFKEMKKNPMTNYTTVPQEFMDHSISPFMRKGMAGDWKTTFTVAQNERFDADYAEKMAGCSLSFRSEL
modifications: co-expressed with E. coli cysDNC
In the case of B3, in the data set on pHCA [2] (induction 0.1 mM IPTG), the Zosteric acid formed was determined as 0.06 mM and the pHCA remaining came out at 0.06 mM.

B4: SULT1A1 Sus scrofa domesticus: aryl sulfotransferase SULT1A1 Sus scrofa domesticus (SEQ ID NO: 4) (protein, listed as Sus scrofa)
chain: MEPVQDTYRPPLEYVKGVPLIKYFAEALGPLESFQAWPDDVLISTYPKSGTTWVSEILDLIYQGGDLQKCQRAPIFVRVPFLEFKIPGCPTGFELLKDTPAPRLLKTHLPLALLPQTLLDQKVKVVYVARNAKDVAVSYYHFYRMAKVHPNPGTWDSFLEDFMAGEVSYGSWYQHVQEWWELRHTHPVLYLFYEDMKENPKREIQKILEFVGRSLPEETVEDIVQHTSFQEMKNNAMTNYRTLPSDLLDHSISAFMRKGITGDWKSTFTVAQNERFEADYAEKMAGCNLRFRSEL
Turning to B4, in the data set with pHCA [1], the Zosteric acid formed was 0.01 mM and the pHCA remaining came out at 0.09 mM. Moreover, the “percent conversion of kaempferol” value with kaempferol is 45%. In addition, the “percent conversion of pHCA” value in the data set on pHCA [3] is given as 8%. For the same molecule, the “percent conversion of resveratrol” value with resveratrol is 88%.

B5: SULT1A1 Equus caballus: aryl sulfotransferase SULT1A1 Equus caballus (SEQ ID NO: 3) (protein, listed as Equus caballus)
chain: MELIQDTSRPPLKYVKGVPLIKYFAEALGPLQSFQARPDDLLISTYPKSGTTWVSEILDMIYHGGDLEKCRRAPIFIRVPFLEFKAPEIPSGVEVLKDTPAPRLLKTHLPLSLLPQTLLDQKVKVVYLARNAKDVAVSYYHFYRMAKVHPDPGTWDSFLEKFMAGEVSYGSWYKHVQEWWELSHTHPVLYLFYEDMKENPKKEIQKILEFVGRSLPEETLDRIVQHTSFKEMKKNPMANYSTIPCDIMDHNISAFMRKGIAGDWKNTFTVAQNEHFDTDYAEKMAGCKLSFRSEV
Consider B5, for which, in the data set on pHCA [1], the Zosteric acid formed turned out to be 0.01 mM and the pHCA remaining amounted to 0.09 mM. For the same molecule, the “percent conversion of kaempferol” value in the data set on kaempferol is listed as 96%. In addition, the “percent conversion of pHCA” value with pHCA [3] was 21%. Besides, the “percent conversion of resveratrol” value with resveratrol stood at 100%.

B6: SULT1E1 Gallus gallus domesticus: aryl sulfotransferase SULT1E1 Gallus gallus domesticus (SEQ ID NO: 6) (protein, listed as Gallus gallus)
chain: MGNDEVIRQDLGCLYDIPLYKCFVAGWPQVEAFQARPDDLLIATYPKSGTTWLSEILDAIYHDGDLEKCRRDAIYNRVPFLEMKAPGILSGVEQLEKIPSPRLVKTHLPVHLLPASFQEKDCKVIYMARNAKDVVISYYYFYQMAKIHPDPGTLSEFLQAFMDGKVAYGSWYKHVKGWWEKRHEKRLLYLFYEDMKKDPRREIQKILQFLGKEVAEETVARILHHTSFQEMKKNPATNYETMPTELMDHSLSPFMRKGISGDWANHFTVAQNERFDQHYQQQMAGSDLCFQMEA
In the data set on pHCA [1], B6 yielded a Zosteric acid formed of 0.01 mM and a pHCA remaining of 0.08 mM. Besides, the “percent conversion of kaempferol” value with kaempferol amounted to 47%. Besides, the “percent conversion of pHCA” value in the data set on pHCA [3] was determined as 17%. Also, the “percent conversion of resveratrol” value in the data set on resveratrol was determined as 100%.

B7: SULT1A1 Canis lupus familiaris: aryl sulfotransferase SULT1A1 Canis lupus familiaris (SEQ ID NO: 5) (protein, listed as Canis lupus)
chain: MEDIPDTSRPPLKYVKGIPLIKYFAEALESLQDFQAQPDDLLISTYPKSGTTWVSEILDMIYQDGDVEKCRRAPVFIRVPFLEFKAPGIPTGLEVLKDTPAPRLIKTHLPLALLPQTLLDQKVKVVYVARNAKDVAVSYYHFYRMAKVHPDPDTWDSFLEKFMAGEVSYGSWYQHVQEWWELSHTHPVLYLFYEDMKENPKREIQKILKFVGRSLPEETVDLIVQHTSFKEMKNNSMANYTTLSPDIMDHSISAFMRKGISGDWKTTFTVAQNERFDADYAKKMEGCGLSFRTQL
With B7, in the data set with pHCA [1], the Zosteric acid formed worked out at 0.01 mM and the pHCA remaining is on record as 0.10 mM. In the data set with kaempferol, the “percent conversion of kaempferol” value was 60%. For the same molecule, the “percent conversion of pHCA” value in the data set on pHCA [3] is reported as 34%. The “percent conversion of resveratrol” value in the data set on resveratrol is given as 61%.
